How the values were obtained:
[1] = target: human ether-à-go-go-related gene potassium channel 1 (hERG), stable HEK 293 cell line (human) (UniProt Q12809)
[2] = target: human ether-à-go-go-related gene potassium channel 1 (hERG), wild type, in Xenopus laevis oocytes (human) (UniProt Q12809)
[3] = target: human ether-à-go-go-related gene potassium channel 1 (hERG), wild type, in Xenopus laevis oocytes (human) (UniProt Q12809); test: two-electrode voltage clamp (fraction of uninhibited tail currents)

recombinant APETx1 (wild type) (peptide)
toxin-induced shift of the half-maximal activation voltage (ΔV1/2) of hERG, whole-cell patch clamp, APETx1 0.1-10 μM; value at 10 μM [1]: 23.9 mV | toxin-induced shift of the half-maximal activation voltage (ΔV1/2) of hERG, TEVC recordings in oocytes, APETx1 0.1-10 μM; value at 10 μM [2]: 21.9 mV | apparent Kd, model (A): four equivalent and independent binding sites per channel, fractional toxin-sensitive current [3]: 1200 nM | apparent Kd, model (B): four equivalent and independent binding sites per channel, fully toxin-sensitive current [3]: 1700 nM | apparent Kd, model (C): one binding site per channel, fractional toxin-sensitive current [3]: 230 nM
